Measurements as given in US20180216133A1.

Assays:
[1] = target: AAVrh64R1 capsid (vector) (adeno-associated virus rh.64R1); test: AVB Sepharose HiTrap column, purified vector mix AAVrh64R1+AAVrh10; genome copies per fraction by real-time PCR
[2] = target: AAV3B-NKDKLN capsid mutant (SPAKFA→NKDKLN) (adeno-associated virus 3B (engineered)); test: AVB Sepharose HiTrap column, unbound vector in flow-through; real-time PCR
[3] = target: AAV3B capsid (vector AAV2/3B.CB7.CI.ffluciferase.RBG) (adeno-associated virus 3B); test: as above
[4] = target: AAV8 capsid (vector) (adeno-associated virus 8); test: AVB Sepharose HiTrap column, purified vector mix AAV8+AAVhu37+AAVrh10; genome copies per fraction by real-time PCR
[5] = target: AAVhu37 capsid (vector AAV2/AAVhu37.TBG.EGFP.bGH) (adeno-associated virus hu37); test: as above
[6] = target: rh.64R1-SPAKFA capsid mutant (NQAKLN→SPAKFA) (adeno-associated virus rh.64R1 (engineered)); test: AVB Sepharose HiTrap column, clarified culture supernatant, wild type vs SPAKFA mutant head-to-head; real-time PCR
[7] = target: AAV9 capsid (vector, CB7.CI.ffluciferase.RBG) (adeno-associated virus 9); test: as above
[8] = target: AAV8 capsid (vector) (adeno-associated virus 8); test: as above
[9] = target: AAV8-SPAKFA capsid mutant (NQSKLN→SPAKFA) (adeno-associated virus 8 (engineered)); test: as above
[10] = target: AAV9-SPAKFA capsid mutant (NKDKLN→SPAKFA) (adeno-associated virus 9 (engineered)); test: as above
[11] = target: AAVrh64R1 capsid (vector) (adeno-associated virus rh.64R1); test: as above
[12] = target: AAV3B capsid (vector AAV2/3B.CB7.CI.ffluciferase.RBG) (adeno-associated virus 3B); test: AVB Sepharose HiTrap column, clarified AAV3B product; genome copies per fraction by real-time PCR
[13] = target: AAV3B-NKDKLN capsid mutant (SPAKFA→NKDKLN) (adeno-associated virus 3B (engineered)); test: AVB Sepharose HiTrap column, AVB.C (1 M NaCl) wash fraction; real-time PCR
[14] = target: AAV3B capsid (vector AAV2/3B.CB7.CI.ffluciferase.RBG) (adeno-associated virus 3B); test: as above
[15] = target: AAV3B-NKDKLN capsid mutant (SPAKFA→NKDKLN) (adeno-associated virus 3B (engineered)); test: AVB Sepharose HiTrap column, DPBS wash fraction; real-time PCR
[16] = target: AAV3B capsid (vector AAV2/3B.CB7.CI.ffluciferase.RBG) (adeno-associated virus 3B); test: as above
[17] = target: AAVrh10 capsid (vector AAV2/AAVrh10.CMV.PI.Cre.RBG) (adeno-associated virus rh10); test: AVB Sepharose HiTrap column, purified vector mixes; genome copies per fraction by real-time PCR (average of two runs)
[18] = target: AAV3B-NKDKLN capsid mutant (SPAKFA→NKDKLN) (adeno-associated virus 3B (engineered)); test: AVB Sepharose HiTrap column, clarified culture supernatant, AAV3B vs AAV3B-NKDKLN head-to-head; real-time PCR
[19] = target: AAV3B capsid (vector AAV2/3B.CB7.CI.ffluciferase.RBG) (adeno-associated virus 3B); test: as above

Question: For “AVB Sepharose High Performance affinity resin ligand: 14kD fragment from a single chain llama antibody expressed in yeast (VHH)”, which percent of loaded vector genome in the elution fraction [1] is on record?
Answer: 22%

Question: And the percent of vector genomes in flow-through (FT) fraction [2]?
Answer: 8.2%

Question: What about the percent of vector genomes in flow-through (FT) fraction [3] of the same substance?
Answer: 1.3%

Question: And the percent of loaded vector genome in the elution fraction [4]?
Answer: 20%

Question: And the percent of loaded vector genome in the elution fraction [5]?
Answer: 82%

Question: And the percent recovery of loaded vector in the elution fraction (of total fractions) [6]?
Answer: 91%

Question: And the percent recovery of loaded vector in the elution fraction (of total fractions) [7]?
Answer: 0.6%

Question: What about the percent recovery of loaded vector in the elution fraction (of total fractions) [8] of the same substance?
Answer: 30%

Question: And the percent recovery of loaded vector in the elution fraction (of total fractions) [9]?
Answer: 93%

Question: What about the percent recovery of loaded vector in the elution fraction (of total fractions) [10] of the same substance?
Answer: 51%

Question: What about the percent recovery of loaded vector in the elution fraction (of total fractions) [11] of the same substance?
Answer: 18%

Question: What about the percent of vector genomes recovered in the elution fraction [12] of the same substance?
Answer: 98%

Question: What about the percent of vector genomes in wash 2 (W2) fraction [13] of the same substance?
Answer: 4.6%

Question: What about the percent of vector genomes in wash 2 (W2) fraction [14] of the same substance?
Answer: 0.3%

Question: What about the percent of vector genomes in wash 1 (W1) fraction [15] of the same substance?
Answer: 0.1%

Question: What about the percent of vector genomes in wash 1 (W1) fraction [16] of the same substance?
Answer: 0%

Question: What about the percent of loaded vector genome in the elution fraction [17] of the same substance?
Answer: 84%

Question: What about the elution fraction yield [18] of the same substance?
Answer: 87%

Question: And the elution fraction yield [19]?
Answer: 98%
